# Laboratory results as given in patent publication US20180371065A1.
# Tests used:
# [1] = biological target: human α-synuclein, full length, wild type (human) (UniProt P37840); assay: direct ELISA, 100 ng/ml coating of full length α-synuclein
# [2] = biological target: human α-synuclein, full length, wild type (human) (UniProt P37840); assay: direct ELISA, 20 µg/ml coating of full length α-synuclein
substance,measurement,setting,value
antibody Syn211 (Sigma),EC50,[1],0.099 nM
same,EC50,[2],0.335 nM
